The values that follow come from PMC10243368.

The target of the experiment is KRAS G12V (whole mutated KRAS gene linked to the LAMP3 signal peptide, as mRNA) peptide on (human). Description: B13.1 TILs stimulated with APCs loaded with KRAS G12V mRNA, sorted PI- CD3+ CD137+, 10x single-cell V(D)J sequencing; ex vivo sorted cells. The settings on record: chains alpha TRAV23/DV6*01 TRAJ58*01 CDR3:beta TRBV5-6*01 TRBJ2-7*01 CDR3.

B1: B13.1.2 (peptide)
chain 1: CAASEETSGSRLTF
chain 2: CASSWNLQASYEQYF
B1 displayed a clonotype frequency among the sorted CD3+ CD137+ cells of 32.8%.
